In patent US20070154954A1, “Fluorescence polarization assay” (TRANSTECH PHARMA, INC., priority 2004, published 2007):
Like-named read-outs stand apart in the source and are kept apart here. Each block holds one molecule with its values, some of them ahead of it.

Assays:
[1] = target: recombinant human sRAGE (Homo sapiens, UniProt Q15109); test: Fluorescence polarization competition assay: displacement of fluorescent amyloid beta (1-40) from sRAGE; conditions: read-out: EC50 for competing with fluoresceinated amyloid beta (1-40) for binding to sRAGE, unlabeled ligand, sRAGE 40 nM, fluorescent amyloid beta (1-40) 50 nM, 37° C. 1 hour, FIG. 4, mean of four measurements
Chain of recombinant human sRAGE (Homo sapiens, UniProt Q15109) (Q15109 23-339): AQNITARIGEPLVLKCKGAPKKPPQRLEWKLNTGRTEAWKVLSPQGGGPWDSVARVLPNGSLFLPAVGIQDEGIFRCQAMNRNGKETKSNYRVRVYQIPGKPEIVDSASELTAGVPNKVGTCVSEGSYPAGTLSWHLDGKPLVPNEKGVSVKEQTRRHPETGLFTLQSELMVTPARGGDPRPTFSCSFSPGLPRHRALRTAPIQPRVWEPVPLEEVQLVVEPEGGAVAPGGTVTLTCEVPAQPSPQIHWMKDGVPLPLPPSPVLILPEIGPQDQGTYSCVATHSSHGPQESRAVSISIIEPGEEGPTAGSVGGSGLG
Method: (§1) Once dissolved, the peptide is diluted with phosphate-buffered saline (calcium-free) to a concentration of 1 mg/ml and allowed to incubate at 37° C. for 24-48 hours.
The complex was incubated at 37° C. for 1 hour and then the milli-polarization (mP) value was read using an Envision plate reader (Perkin Ekmer). In some cases, depending on the purity of the human sRAGE, 0.1% bovine serum albumin (BSA) or 0.05% of the detergent TWEEN 20 may be added to the phospahte buffered saline to reduce background binding of the sRAGE to the assay well.

[2] = target: T1, recombinant human sRAGE (human, UniProt Q15109 23-339); test: fluorescence polarization, displacement of fluorescent amyloid beta (1-40) from sRAGE
T1 construct: also called soluble RAGE
T1 sequence (Q15109 23-339 limits assumed): as the sequence (Q15109 23-339) above
Method: as §1
The complex was incubated at 37° C. for 1 hour and then the milli-polarization (mP) value was read using an Envision plate reader (Perkin Ekmer).

Molecule: s100b: unlabeled S100b, calgranulin-like RAGE ligand
- EC50 [1]: ~43 nM
- EC50 ([1]; listed as S100b): 43 nM

- EC50 [2]: 43 nM
B1: unlabeled S100b (ligand)
chain: MSELEKAMVALIDVFHQYSGREGDKHKLKKSELKELINNELSHFLEEIKEQEVVDKVMETLDNDGDGECDFQEFMAFVAMVTTACHEFFEHE
